In paper PMC3834827, “Crystal structure of the DdrB/ssDNA complex from Deinococcus radiodurans reveals a DNA binding surface involving higher-order oligomeric states” (Nucleic Acids Research, 2013):

Tests used:
[1] = biological target: DdrB E51A mutant with N-terminal 6His tag (Deinococcus radiodurans) (UniProt Q9RY80); experiment: AUC; sedimentation velocity, 20°C, 42 krpm, 100 mM KCl, 20 mM Tris pH 8.0, loading concentrations 10 µM to 0.64 mM, absorbance and interference optics, no DNA; pentamer and assemblies of pentamers
[2] = biological target: DdrB R83A mutant with N-terminal 6His tag (Deinococcus radiodurans) (UniProt Q9RY80); experiment: as above
DdrB E51A [3] = biological target: T1, DdrB E51A (Deinococcus radiodurans, UniProt Q9RY80 1-144, E51A); experiment: fluorescence anisotropy; 3 uM pentamer; full DNA binding activity retained; FP: 20 mM Tris pH 8.0, 100 mM KCl, 200 nM DNA; EMSA: same plus 15% glycerol, 10 uM DNA; temperature not stated; settings: protein: recombinant; tags: N-terminal 6His; chain copies: 5; label: 5' 6-FAM
T1 sequence: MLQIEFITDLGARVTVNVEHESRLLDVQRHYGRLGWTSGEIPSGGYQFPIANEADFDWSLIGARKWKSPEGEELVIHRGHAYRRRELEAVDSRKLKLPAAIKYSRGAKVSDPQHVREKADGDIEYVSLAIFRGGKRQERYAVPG

DdrB1-144 [4] = biological target: T2, DdrB1-144 (Deinococcus radiodurans, UniProt Q9RY80 1-144); experiment: fluorescence anisotropy; per pentamer, A+B=AB model; FP: 20 mM Tris pH 8.0, 100 mM KCl, 200 nM DNA; EMSA: same plus 15% glycerol, 10 uM DNA; temperature not stated; settings: protein: recombinant; tags: N-terminal 6His (pET151, not cleaved); chain copies: 5; label: 5' 6-FAM
T2 sequence: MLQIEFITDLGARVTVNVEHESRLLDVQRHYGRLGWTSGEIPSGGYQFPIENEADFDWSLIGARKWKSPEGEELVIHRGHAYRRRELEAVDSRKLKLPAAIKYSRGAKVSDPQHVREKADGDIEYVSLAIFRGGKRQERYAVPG

DdrB W66A = biological target: T3, DdrB W66A (Deinococcus radiodurans, UniProt Q9RY80 1-144, W66A); experiment: fluorescence anisotropy; per pentamer; saturating anisotropy fixed to wild-type value; FP: 20 mM Tris pH 8.0, 100 mM KCl, 200 nM DNA; EMSA: same plus 15% glycerol, 10 uM DNA; temperature not stated; settings: protein: recombinant; tags: N-terminal 6His; chain copies: 5; label: 5' 6-FAM
T3 sequence: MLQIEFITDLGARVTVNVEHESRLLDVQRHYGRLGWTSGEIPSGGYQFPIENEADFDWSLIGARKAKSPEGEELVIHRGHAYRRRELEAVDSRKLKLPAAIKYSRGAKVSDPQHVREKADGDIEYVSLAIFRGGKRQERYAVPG

[5] = biological target: the molecule itself; experiment: crystal structure; 740 µM DdrBDr with 160 µM 50b poly dT, hanging drop at 20°C; 2.30 Å; pentamer in the asymmetric unit, pentamer-pentamer interface by crystallographic symmetry
DdrB1-144 [6] = biological target: T2, DdrB1-144; experiment: EMSA; pentamer, decamer and penta-decamer complexes; 10 uM DNA; FP: 20 mM Tris pH 8.0, 100 mM KCl, 200 nM DNA; EMSA: same plus 15% glycerol, 10 uM DNA; temperature not stated; settings: protein: recombinant; tags: N-terminal 6His (pET151, not cleaved); chain copies: 5
DdrB1-144, tag removed = biological target: T4, DdrB1-144, tag removed (Deinococcus radiodurans, UniProt Q9RY80 1-144); experiment: X-ray crystallography 2.30 A; MES pH 5.6, KCl, 10 mM MgCl2, PEG 8000; FP: 20 mM Tris pH 8.0, 100 mM KCl, 200 nM DNA; EMSA: same plus 15% glycerol, 10 uM DNA; temperature not stated; settings: protein: recombinant; tags: 6His removed by TEV; chain copies: 5
T4 sequence: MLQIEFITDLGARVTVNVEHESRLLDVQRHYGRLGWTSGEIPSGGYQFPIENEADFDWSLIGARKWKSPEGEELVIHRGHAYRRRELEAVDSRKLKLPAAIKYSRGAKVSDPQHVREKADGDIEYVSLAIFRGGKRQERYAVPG

DdrB E51A [7] = biological target: T1, DdrB E51A; experiment: EMSA; single pentamer-DNA complex only, no higher-order shifts; 10 uM DNA; FP: 20 mM Tris pH 8.0, 100 mM KCl, 200 nM DNA; EMSA: same plus 15% glycerol, 10 uM DNA; temperature not stated; settings: protein: recombinant; tags: N-terminal 6His; chain copies: 5

With “DdrB E51A mutant with N-terminal 6His tag (from UniProt Q9RY80 1-144) (domain or fragment)” the percent of the total signal from the pentamer [1] was 88% and the stoichiometry N [1] was 5.

With “DdrB R83A mutant with N-terminal 6His tag (from UniProt Q9RY80 1-144) (domain or fragment)” the percent of the total signal from the pentamer [2] was 92% and the stoichiometry N [2] was 5.

TTTTTTTTTTTTTTTTTTTT (ssDNA) [20b poly dT] was tested, and the binding result (DdrB E51A [3]) was “binds”, the Kd (DdrB1-144 [4]) was 3.6 µM and the Kd (DdrB W66A) was 51 µM.

B1: DdrB1-144 from Deinococcus radiodurans, 6His tag removed (protein used in crystallography) (domain or fragment, UniProt Q9RY80 1-144, looked up)
chain: MLQIEFITDLGARVTVNVEHESRLLDVQRHYGRLGWTSGEIPSGGYQFPIENEADFDWSLIGARKWKSPEGEELVIHRGHAYRRRELEAVDSRKLKLPAAIKYSRGAKVSDPQHVREKADGDIEYVSLAIFRGGKRQERYAVPG
notes: DdrB, Deinococcus radiodurans, residues 1-144 (stop codon introduced following residue 144), construct MJ4748 in pET151/D-Topo; Pentamer; Tag cleaved with TEV protease; also called DdrBDr; not shown: His6, N-terminal, cleaved
B1 was tested, and the “stoichiometry N” value [5] was 5.

TTTTTTTTTTTTTTTTTTTTTTTTTTTTTTTTTTTTTTTTTTTTTTTTTT (ssDNA) [50b poly dT]: binds (DdrB1-144 [6]); binds (DdrB1-144, tag removed); binds (DdrB E51A [7]).
